Results from US20230272056A1 (Merck Sharp & Dohme, published 2023).
Changes are numbered by the printed parent chain. Names and notes keep the numbering of the source.

B1: 11BLM (antibody, human IgG1, kappa, L234A L235A, V domains shown)
VH: EVQLVQSGAEVKKPGASVKVSCKASGYTFTSYDMHWVRQAPGQGLEWMGRIDPQSGGIRYAQKFQGRATLTVDTSTSTAYMELSRLRSDDTAVYYCARWDYGGYFDVWGQGTLVTVSS
VL: DIQMTQSPSSLSASVGDRVTITCRASQDIYNYLNWYQQKPGKAVKLLIYYTSVLETGVPSRFSGSGSGTDYTLTISSLQPEDFATYFCQQGDTLPWTFGQGTKLEIKR
notes: IgG1 L234A L235A D265S/kappa; also called 74BLH; 47BMD
B2: 07BLM (antibody, human IgG1, kappa, L234A L235A, V domains shown)
VH: B1 VH
VL: B1 VL with N31S, V53N
notes: IgG1 L234A L235A D265S/kappa; also called 70BLH; 43BMD
B3: 18BLM (antibody, human IgG1, kappa, L234A L235A, V domains shown)
VH: B1 VH with R59K, W99Y, Y101H
VL: B1 VL with V53R
notes: IgG1 L234A L235A D265S/kappa; also called 81BLH; 54BMD
B4: 12BLM (antibody, human IgG1, kappa, L234A L235A, V domains shown)
VH: B1 VH with I58V, R59K
VL: B1 VL with T93E
notes: IgG1 L234A L235A D265S/kappa; also called 75BLH; 48BMD
B5: 82BJN (Fab, V domains shown)
VH: B1 VH with D33Y, H35N, I58V, R59K, D100H, Y104Q
VL: B1 VL with V53G, E55H, T56S
notes: also called VH W33Y H35N I58V D100H Y104Q / VL T30Y R53G (82BJN)
B6: 81BJN (Fab, V domains shown)
VH: B1 VH with S31E, Y104Q, V107A
VL: B1 VL with E55H, T56S
notes: also called VH S31E W33D K59R Y104Q V107A / VL T30Y R53V (81BJN)

target: T1, human LAP-TGFB1 Fc fusion (human); assay: SPR pH 6.0, antigen captured on Fab 54BLH
T1 construct: also called human LAP-TGFβ1-Fc; human LAP-TGFβ-Fc isoform 1
T1 sequence (chain, as listed by the source limits assumed): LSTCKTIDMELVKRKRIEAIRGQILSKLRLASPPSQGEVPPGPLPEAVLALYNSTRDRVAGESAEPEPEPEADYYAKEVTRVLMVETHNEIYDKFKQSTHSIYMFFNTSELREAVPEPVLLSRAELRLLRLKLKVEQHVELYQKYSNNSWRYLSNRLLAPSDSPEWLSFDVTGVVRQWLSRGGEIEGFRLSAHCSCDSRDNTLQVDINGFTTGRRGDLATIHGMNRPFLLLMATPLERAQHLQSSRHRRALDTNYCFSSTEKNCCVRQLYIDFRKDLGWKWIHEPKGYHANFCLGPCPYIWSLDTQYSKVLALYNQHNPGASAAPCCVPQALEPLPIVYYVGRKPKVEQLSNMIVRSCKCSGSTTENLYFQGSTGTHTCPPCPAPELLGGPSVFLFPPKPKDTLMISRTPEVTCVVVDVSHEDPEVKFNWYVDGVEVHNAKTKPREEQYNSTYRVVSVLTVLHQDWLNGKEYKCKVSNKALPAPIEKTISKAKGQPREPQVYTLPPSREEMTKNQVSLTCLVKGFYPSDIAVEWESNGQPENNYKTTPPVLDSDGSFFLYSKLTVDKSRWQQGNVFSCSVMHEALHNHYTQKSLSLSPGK
From the text: (§1) A Series S C1 sensor chip (Cytiva, catalog BR100535) was immobilized with low densities of high affinity Fab 54BLH on a Biacore T200 instrument with 1×HBS-EP+(Teknova, catalog H8022). This surface served as a monovalent capture surface for a low-density layer of heterodimer human LAP-TGFβ1 complex leaving the second binding site exposed for monovalent kinetic binding analysis with both mAbs and Fabs. Immobilized flow cell 1 served as the reference and flow cells 2, 3 and 4 were used to evaluate the binding interaction between human LAP-TGFβ1 and yeast display mutant mAbs and Fabs.
(§2) Approximately 15-25 RU of human LAP-TGFβ1-Fc was captured to the Fab capture surface followed by injection of 1:3 serially diluted Fabs and mAbs from 6 nM to 0.07 nM (Fabs: 54BLH, 55BLH, 60BLH, 63BLH, 64BLH-mAbs: 69BLH, 70BLH) and 1:3 serially diluted Fab and mAbs from 60 nM to 0.74 nM (Fabs: 59BLH, 66BLH, 67BLH—mAbs: 74BLH, 75BLH, 78BLH, 79BLH, 81BLH, 82BLH) including 0 nM. The binding data was double referenced by subtraction of signal from a reference flow cell and the 0 nM injections for evaluation of Fabs and mAbs respectively. Binding rate constants were calculated/determined by fitting the data with a 1:1 binding model (Cytiva Biacore T200 Evaluation software 3.0).

Row | Binder | Fab/mAb KD Ratio | Kd | koff | kon
1 | B1 | 1.3 | 0.133 nM | 0.000892 s⁻¹ | 6.75e+06 M⁻¹ s⁻¹
2 | B2 | 2.2 | 0.155 nM | 0.00131 s⁻¹ | 8.47e+06 M⁻¹ s⁻¹
3 | B3 | 1.8 | 9.11 nM | 0.0489 s⁻¹ | 5.65e+06 M⁻¹ s⁻¹
4 | B4 | 2.2 | 0.136 nM | 0.000936 s⁻¹ | 6.86e+06 M⁻¹ s⁻¹

target: T2, human LAP-TGFB3 Fc fusion (human); assay: SPR
T2 construct: also called human LAP-TGFβ3; LAP-TGFβ isoform 3
T2 sequence (chain, as listed by the source limits assumed): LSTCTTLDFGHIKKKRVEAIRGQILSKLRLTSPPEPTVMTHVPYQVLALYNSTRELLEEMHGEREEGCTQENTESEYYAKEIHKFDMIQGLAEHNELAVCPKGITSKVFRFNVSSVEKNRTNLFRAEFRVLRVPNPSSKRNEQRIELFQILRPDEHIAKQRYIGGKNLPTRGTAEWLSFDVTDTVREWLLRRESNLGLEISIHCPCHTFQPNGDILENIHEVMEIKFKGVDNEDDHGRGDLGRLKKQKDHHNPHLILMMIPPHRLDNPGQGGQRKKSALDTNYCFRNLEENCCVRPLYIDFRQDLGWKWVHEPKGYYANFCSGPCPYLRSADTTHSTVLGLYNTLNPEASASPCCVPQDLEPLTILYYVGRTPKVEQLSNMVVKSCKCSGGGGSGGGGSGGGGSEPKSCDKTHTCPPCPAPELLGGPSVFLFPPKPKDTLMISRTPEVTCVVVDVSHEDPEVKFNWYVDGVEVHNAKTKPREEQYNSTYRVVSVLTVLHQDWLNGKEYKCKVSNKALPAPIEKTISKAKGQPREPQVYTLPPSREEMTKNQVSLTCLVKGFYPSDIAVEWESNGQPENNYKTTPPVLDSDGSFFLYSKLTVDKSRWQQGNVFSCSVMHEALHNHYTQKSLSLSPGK
From the text: (§3) This Example describes the isoform specificity of the yeast display mutants to bind to human LAP-TGFβ isoforms 1, 2, and 3 using surface plasmon resonance. A Series S CM4 sensor chip (GE Healthcare, catalog BR100534) was immobilized with an anti-human Fc capture antibody following the kit protocol (GE Healthcare, catalog BR100839) on a Biacore T200 instrument with 1× HBS-EP+ (Teknova, catalog H8022). […] Binding specificity experiments between human LAP-TGFβ isoforms 2 and 3 and yeast display mutants were performed in 1× HBS-EP+ with 0.1 mg/mL BSA at 25° C. Approximately 20-40 RU amounts of human LAP-TGFβ2 and 3 were captured to the anti-human Fc surface followed by injection of 1000 nM Fab including a negative control 0 nM Fab. The binding data were double referenced by subtraction of signal from a reference (capture surface only) flow cell and the negative control 0 nM Fab injection. Binding rate constants were determined by fitting the data with a 1:1 binding model (GE Healthcare Biacore T200 Evaluation software 3.0).

Row | Binder | binding result
5 | B5 | no binding (tested: 1000 nM Fab)
6 | B6 | no binding (tested: 1000 nM Fab)

target: T3, human LAP-TGFB2 Fc fusion (human); assay: SPR
T3 construct: also called human LAP-TGFβ2; LAP-TGFβ isoform 2
T3 sequence (chain, as listed by the source limits assumed): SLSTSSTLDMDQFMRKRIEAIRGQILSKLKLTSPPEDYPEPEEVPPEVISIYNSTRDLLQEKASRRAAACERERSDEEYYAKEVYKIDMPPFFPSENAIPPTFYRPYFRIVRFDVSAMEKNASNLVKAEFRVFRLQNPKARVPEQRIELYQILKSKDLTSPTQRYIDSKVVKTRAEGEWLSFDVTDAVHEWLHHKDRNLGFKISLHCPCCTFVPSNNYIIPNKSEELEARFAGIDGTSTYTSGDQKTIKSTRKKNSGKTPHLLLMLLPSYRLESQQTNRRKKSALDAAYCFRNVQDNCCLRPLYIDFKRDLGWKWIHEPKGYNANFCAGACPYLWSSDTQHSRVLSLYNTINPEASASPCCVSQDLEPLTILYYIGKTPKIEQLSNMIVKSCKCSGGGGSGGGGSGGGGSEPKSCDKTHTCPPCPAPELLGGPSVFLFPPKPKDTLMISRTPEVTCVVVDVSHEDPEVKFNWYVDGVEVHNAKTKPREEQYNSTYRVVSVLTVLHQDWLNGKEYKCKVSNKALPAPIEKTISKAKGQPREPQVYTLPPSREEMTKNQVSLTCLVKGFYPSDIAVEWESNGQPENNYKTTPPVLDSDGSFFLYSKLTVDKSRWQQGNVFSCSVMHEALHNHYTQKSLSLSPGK
From the text: as §3

Row | Binder | binding result
7 | B5 | no binding (tested: 1000 nM Fab)
8 | B6 | no binding (tested: 1000 nM Fab)

target: T4, human LAP-TGFβ1 (construct not stated) (human, UniProt P01137 30-390); assay: KinExA, mAb as constant binding partner
T4 construct: also called human LAP-TGFβ isoform 1; titrant
T4 sequence (P01137 30-390 limits assumed): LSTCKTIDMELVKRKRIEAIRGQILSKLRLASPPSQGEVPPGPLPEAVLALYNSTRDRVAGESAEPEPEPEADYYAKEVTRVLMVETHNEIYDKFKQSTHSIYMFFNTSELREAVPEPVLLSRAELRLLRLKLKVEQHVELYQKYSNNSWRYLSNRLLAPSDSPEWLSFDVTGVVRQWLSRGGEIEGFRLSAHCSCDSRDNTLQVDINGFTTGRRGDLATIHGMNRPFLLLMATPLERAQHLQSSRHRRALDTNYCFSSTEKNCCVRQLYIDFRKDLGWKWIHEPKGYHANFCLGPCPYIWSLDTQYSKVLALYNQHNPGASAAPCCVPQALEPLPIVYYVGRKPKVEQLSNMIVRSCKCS
Procedure: An orthogonal kinetic exclusion assay (KinExA) method was used in this study to measure the affinities of affinity-matured anti-LAP-TGFβ1 antibodies (referred to as the constant binding partner, CBP) and human LAP-TGFβ1 (referred to as the titrant). To determine the free CBP concentration in solution, biotinylated human LAP-TGFβ1 coated PMMA (Sapidyne, catalog 440176) beads were prepared by first coating with biotin-BSA (ThermoScientific, catalog 29130) followed by streptavidin (Invitrogen, catalog S888), and a final coat with biotinylated human LAP-TGFβ1-Fc.
For association rate analysis, an experimentally optimized constant concentration of CBP and titrant, were mixed 1:1 and free CBP was measured at timed intervals ranging from 15 to 10000 seconds. […] The data were analyzed with KinExA Pro software (version 4.4.26) where the free CBP binding signals were converted into percent free response, plotted against time (seconds) and processed with the n-curve software “Kinetics, Direct” analysis method.
For equilibrium affinity analysis, two experimentally optimized CBP concentrations were combined with 1:2 serially diluted titrant, human LAP-TGFβ1, and incubated at room temperature to achieve equilibrium. […] The data was analyzed with KinExA Pro software (version 4.4.26) where the free CBP binding signals were converted into percent free response and plotted against the titrant concentration series. The equilibrium KD was determined by processing with n-curve software “Equilibrium” analysis method.

Row | Binder | Kd | koff | kon
9 | B1 | 0.00133 nM | 8.14e-06 s⁻¹ | 1.63e+07 M⁻¹ s⁻¹
10 | B2 | 0.00224 nM | 2.82e-05 s⁻¹ | 1.28e+07 M⁻¹ s⁻¹
11 | B3 | 0.0621 nM | 6.09e-06 s⁻¹ | 98300 M⁻¹ s⁻¹
12 | B4 | 0.000367 nM | 7.71e-06 s⁻¹ | 2.04e+07 M⁻¹ s⁻¹

target: human LAP-TGFβ1 expressed on P3U1 cells (human, UniProt P01137 30-390); assay: cell-based or functional assay
Sequence (P01137 30-390): as the sequence (P01137 30-390 limits assumed) above

Row | Binder | Average EC50 | ELISA assay 2 EC50 | ELISA assay #1 EC50
13 | B1 | 0.083 µg/mL | 0.112 µg/mL | 0.0539 µg/mL
14 | B2 | 0.076 µg/mL | 0.119 µg/mL | 0.0332 µg/mL
15 | B3 | 0.052 µg/mL | 0.006 µg/mL | 0.0982 µg/mL
16 | B4 | 0.063 µg/mL | 0.096 µg/mL | 0.0295 µg/mL

target: T1, human LAP-TGFB1 Fc fusion; assay: SPR, antigen-Fc captured, Fab analyte
From the text: as §3

Row | Binder | Fold improvement in KD | Kd | koff | kon
17 | B5 | 8610 fold | 0.00928 nM | 2.6e-05 s⁻¹ | 2.81e+06 M⁻¹ s⁻¹
18 | B6 | 12700 fold | 0.00629 nM | 2.56e-05 s⁻¹ | 4.08e+06 M⁻¹ s⁻¹

target: T1, human LAP-TGFB1 Fc fusion; assay: SPR pH 7.4, antigen captured on Fab 54BLH
From the text: as §1, §2

Row | Binder | Fab/mAb KD Ratio | Kd | koff | kon
19 | B1 | 1.7 | 0.026 nM | 0.000374 s⁻¹ | 1.47e+07 M⁻¹ s⁻¹
20 | B2 | 0.3 | 0.047 nM | 0.000671 s⁻¹ | 1.45e+07 M⁻¹ s⁻¹
21 | B3 | 3.3 | 0.959 nM | 0.00518 s⁻¹ | 5.4e+06 M⁻¹ s⁻¹
22 | B4 | 3.2 | 0.0111 nM | 0.000212 s⁻¹ | 1.91e+07 M⁻¹ s⁻¹
